One data set deals with PPARγ/RXRα heterodimer (Homo sapiens, UniProt P37231;P19793 P37231:1-505,P19793:1-462). The experiment in a line: EMSA; poly(dI-dC), 25 C 20 min then 4 C 15 min; band when both PPARγ and RXRα present; competed by 10x and 50x unlabeled wild type. The settings on record: tags: TNT T7 Quick Coupled (Promega); label: 32P. A general note: A gel shift assay detects complexes by their altered migration in electrophoresis.

The next data set concerns the target LRH-1 (Homo sapiens, UniProt O00482 O00482:1-541). The experiment in a line: EMSA; conditions as Example 4; competed by 10x and 50x unlabeled wild type. The settings on record: protein: synthetic; tags: synthesized in vitro from human LRH-1 expression plasmid; label: 32P.

Sequence of LRH-1 (O00482 whole entry, one chain of several): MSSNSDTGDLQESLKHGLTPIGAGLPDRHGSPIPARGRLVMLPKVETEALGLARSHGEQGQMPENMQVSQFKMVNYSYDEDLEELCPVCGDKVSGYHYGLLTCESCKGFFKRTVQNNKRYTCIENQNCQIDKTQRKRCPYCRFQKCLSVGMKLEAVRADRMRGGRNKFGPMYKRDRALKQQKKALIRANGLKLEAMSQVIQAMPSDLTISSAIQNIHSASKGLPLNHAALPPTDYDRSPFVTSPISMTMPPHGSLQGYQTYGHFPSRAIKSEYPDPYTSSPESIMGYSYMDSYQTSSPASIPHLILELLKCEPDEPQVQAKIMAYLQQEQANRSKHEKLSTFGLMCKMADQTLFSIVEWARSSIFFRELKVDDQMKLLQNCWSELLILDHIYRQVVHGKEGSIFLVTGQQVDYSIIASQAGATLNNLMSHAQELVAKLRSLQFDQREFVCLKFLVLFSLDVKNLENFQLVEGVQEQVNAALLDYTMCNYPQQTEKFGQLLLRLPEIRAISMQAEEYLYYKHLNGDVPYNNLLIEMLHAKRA
Sequence of PPARγ/RXRα heterodimer (P37231 whole entry, chain 1 of 2): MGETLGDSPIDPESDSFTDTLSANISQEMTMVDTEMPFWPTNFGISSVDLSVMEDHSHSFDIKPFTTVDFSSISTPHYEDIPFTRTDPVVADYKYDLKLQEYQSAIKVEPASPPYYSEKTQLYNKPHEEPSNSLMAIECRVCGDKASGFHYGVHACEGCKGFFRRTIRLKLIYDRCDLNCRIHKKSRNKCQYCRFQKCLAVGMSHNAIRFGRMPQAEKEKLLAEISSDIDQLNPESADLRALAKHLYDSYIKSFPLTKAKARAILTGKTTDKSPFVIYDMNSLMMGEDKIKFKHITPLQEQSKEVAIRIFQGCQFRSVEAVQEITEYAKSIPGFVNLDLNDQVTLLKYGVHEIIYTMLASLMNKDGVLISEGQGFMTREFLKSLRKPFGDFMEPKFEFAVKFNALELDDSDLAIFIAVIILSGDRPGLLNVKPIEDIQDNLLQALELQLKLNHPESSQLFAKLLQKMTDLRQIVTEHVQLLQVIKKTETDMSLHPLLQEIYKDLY
Sequence of PPARγ/RXRα heterodimer (P19793 whole entry, chain 2 of 2): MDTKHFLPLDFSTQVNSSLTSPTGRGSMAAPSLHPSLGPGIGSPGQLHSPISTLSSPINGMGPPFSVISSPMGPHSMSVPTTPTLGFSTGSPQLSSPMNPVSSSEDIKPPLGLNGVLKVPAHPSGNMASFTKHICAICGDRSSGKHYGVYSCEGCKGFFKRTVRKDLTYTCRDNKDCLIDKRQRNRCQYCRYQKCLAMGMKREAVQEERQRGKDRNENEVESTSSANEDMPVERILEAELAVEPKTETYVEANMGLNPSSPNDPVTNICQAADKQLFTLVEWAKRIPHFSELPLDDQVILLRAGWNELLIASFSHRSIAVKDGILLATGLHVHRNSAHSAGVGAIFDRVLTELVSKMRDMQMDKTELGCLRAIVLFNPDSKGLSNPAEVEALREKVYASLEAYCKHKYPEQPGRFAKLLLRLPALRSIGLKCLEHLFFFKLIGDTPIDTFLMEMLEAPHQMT
Protocol for LRH-1: To confirm the direct binding of LRH-1 to the regulatory sequence LRH-RE found in human adiponectin promoter region, gel shift assay was executed. […] LRH-1 protein used was synthesized in vitro using human LRH-1 expression plasmid as template. […] In the competitive reaction, identical oligoDNAs to the labeled probe were used as wild-type competitors. […] 10 times or 50 times higher concentration of each unlabeled oligoDNAs was added into the reaction.
Protocol for PPARγ/RXRα heterodimer: For the binding reaction, human PPARγ and RXRα protein were synthesized in vitro by using TNT T7 Quick Coupled Transcription/Translation Systems (Promega corporation) according to a supplyer's protocol. […] The binding reaction was performed in 20 μl of a solution including 1 μg of poly (dI-dC), 1 μl of the in vitro synthesized nuclear receptor solution, and 200,000 cpm of the labeled probe. After mixing, it was incubated for 20 minutes at 25° C. and was left for 15 minutes at 4° C. The labeled probe binding to nuclear receptors was separated from the free probe by electrophoresis using 4% of polyacrylamide gel. The electrophoresis was executed using 0.5× TBE buffer (45 mM Tris, 45 mM boric acid, and 1 m M EDTA) for 90 minutes under a voltage of 200V. After the electrophoresis, the gel was dried and analyzed by BAS2500 system (Fuji Photo Film Co., Ltd.). To confirm that the labeled probe binds to nuclear receptors specifically, the competitive reactions were executed.

B1: adiponectin PPRE probe (-291 to -267) (dsDNA)
DNA 1: TGGTTTTGACTTTTGCCCCATCTTC
DNA 2: GAAGATGGGGCAAAAGTCAAAACCA
B1: the binding result in the data set with PPARγ/RXRα heterodimer is listed as “binds”.

B2: adiponectin LRH-RE probe (-245 to -221) (dsDNA)
DNA 1: AATAAGGGTCAAGGCCTGGAAACAC
DNA 2: GTGTTTCCAGGCCTTGACCCTTATT
Turning to B2, the binding result with LRH-1 is reported as “binds”.

Source of the values: patent publication US20060084618, “Adiponectin promoter and use thereof” (published 2006).
